# B1: XSMC3 (natural protein)
# chain: MYIKQVIIQGFRSYRDQTIVDPFSSKHNVIVGRNGSGKSNFFYAIQFVLSDEFSHLRPEQRLALLHEGTGPRVISAFVEIIFDNSDNRLPIDKEEVSLRRVIGAKKDQYFLDKKMVTKNDVMNLLESAGFSRSNPYYIVKQGKINQMATAPDSQRLKLLREVAGTRVYDERKEESISLMKETEGKRDKINELLKYIEERLHTLEEEKEELAQYQKWDKMRRALEYTIYNQELNETRAKLDELSSKRETSGEKSRQLRDAQQDARDKMEEIERQVRELKSKISAMKEEKEQLSSERQEQIKQRTKLELKTKDLQDELAGNSEQRKRLLKERQKLLEKIEEKQKELAETEPKFSSVKQKEESGIARLAQATQERTDLYAKQGRGSQFTSKEERDKWIKKELKSLDQAINDKKRQIAAINKDLEETEVNKEKNLEQYTKLDQDLNEVKTRVEELDKKYYEVKNKKDELQSERNYLWREENAEQQSLAAKREDLEKKQQLLRAATGKAILNGIDSINKVLEHFRRKGINQHVINGYHGIVMNNFDCEPAFYTCVEVTAGNRLFYHIVESDEVSTKILMEFNKMNLPGEVTFLPLNKLDVRDTAYPETNDAIPMISKLRYNLRFDKAFKHVFGKTLICRSMEVSTQLARAFTMDCITLEGDQVSHRGALTGGYYDTRKSRLELQKDVRKVEDELHALEAKLNENLRRNIERINNEIDQLMNQMQQIETQQRKFKASRDSILSEMKMLKEKRQQSEKTFMPKQRSLQSLEASLHAMESTRESLKAELGTDLLSQLSLEDQKRVDALNDEIRQLQQENRQLLNERIKLEGTITRVETYLNENLRKRLDQVEQELNELRETEGGTVLTATTSELEAINKRVKDTLARSEGLDITIDKTEVESKDLVKSMDRWKNMEKDHMDAINHDTKELEKMTNRQGMLLKKKEECMKKIRELGSLPQEAFEKYQTLSLKQLFRKLEQCNTELKKYSHVNKKALDQFVNFSEQKEKLIKRQEELDRGHKSIMELMNVLELRKYEAIQLTFKQVSKNFSEVFQKLVPGGKATLVMKKGDVEGSQSQDEGEGSTQSSVPSVDQFTGVGIRVSFTGKQAEMREMQQLSGGQKSLVALALIFAIQKCDPAPFYLFDEIDQALDAQHRKAVSDMIMELASHAQFITTTFRPELLESADKFYGVKFRNKVSHIDVITAEQAKDFVEDDTTHG
# Target: T1, XSMC1 (Xenopus (endogenous in egg extracts), UniProt O93308 1-1232)
# T1 sequence: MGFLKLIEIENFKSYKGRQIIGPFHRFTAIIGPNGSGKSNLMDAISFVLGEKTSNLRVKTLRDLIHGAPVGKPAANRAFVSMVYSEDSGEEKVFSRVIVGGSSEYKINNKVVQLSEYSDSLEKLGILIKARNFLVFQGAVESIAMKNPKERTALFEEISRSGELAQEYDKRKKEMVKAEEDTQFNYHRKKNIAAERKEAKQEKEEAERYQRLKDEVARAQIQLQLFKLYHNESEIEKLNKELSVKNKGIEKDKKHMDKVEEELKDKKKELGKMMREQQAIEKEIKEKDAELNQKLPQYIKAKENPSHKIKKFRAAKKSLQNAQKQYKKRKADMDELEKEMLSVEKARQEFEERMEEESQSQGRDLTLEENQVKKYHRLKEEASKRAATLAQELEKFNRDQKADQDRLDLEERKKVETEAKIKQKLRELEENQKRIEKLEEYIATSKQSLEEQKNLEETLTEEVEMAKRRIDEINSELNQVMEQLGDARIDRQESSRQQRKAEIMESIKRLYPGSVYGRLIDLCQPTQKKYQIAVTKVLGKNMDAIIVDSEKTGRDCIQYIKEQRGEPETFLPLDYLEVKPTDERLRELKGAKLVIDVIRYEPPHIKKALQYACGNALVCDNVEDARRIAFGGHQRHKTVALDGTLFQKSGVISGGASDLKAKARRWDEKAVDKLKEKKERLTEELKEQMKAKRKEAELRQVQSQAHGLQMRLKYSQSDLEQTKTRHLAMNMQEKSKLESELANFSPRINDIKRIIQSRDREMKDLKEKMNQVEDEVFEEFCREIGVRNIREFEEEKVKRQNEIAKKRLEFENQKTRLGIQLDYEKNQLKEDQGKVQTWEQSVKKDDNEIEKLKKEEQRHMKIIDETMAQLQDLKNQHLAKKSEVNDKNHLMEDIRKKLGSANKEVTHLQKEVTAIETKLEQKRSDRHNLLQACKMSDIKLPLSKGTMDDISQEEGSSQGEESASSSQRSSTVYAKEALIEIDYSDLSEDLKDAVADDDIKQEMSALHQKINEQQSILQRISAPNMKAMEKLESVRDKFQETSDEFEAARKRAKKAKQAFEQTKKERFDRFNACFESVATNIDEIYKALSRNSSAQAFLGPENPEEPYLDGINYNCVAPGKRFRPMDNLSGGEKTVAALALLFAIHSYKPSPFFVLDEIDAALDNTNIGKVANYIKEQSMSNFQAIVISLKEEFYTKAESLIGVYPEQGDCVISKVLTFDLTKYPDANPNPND
# Assay: rotary-shadowing electron microscopy
binder,measurement,value
B1,binding result,binds
